Experimental data reported in the Immune Epitope Database (IEDB).
One block for each sequence: values may come before it.

Experiments:
HLA-A*02:01 [1] = assay: IEDB peptide-MHC binding, purified MHC/competitive/fluorescence; filed as Kd, often an IC50 or EC50 that approximates it; ≥ and ≤ were set here for values at or beyond the usual limits of such assays
HLA-A*29:02 = assay: as above
HLA-A*26:01 [2] = assay: as above
HLA-A*02:16 = assay: as above
HLA-A*69:01 [3] = assay: as above
HLA-B*57:01 = assay: as above
HLA-B*51:01 = assay: as above
HLA-A*02:19 = assay: as above
HLA-A*02:12 = assay: as above
HLA-A*68:02 = assay: as above
HLA-A*24:03 [4] = assay: as above; settings: source organism: Rickettsia sibirica 246
HLA-B*27:03 = assay: as above
HLA-A*03:01 [5] = assay: as above
HLA-B*39:01 = assay: as above
HLA-B*18:01 [6] = assay: as above
HLA-B*08:01 = assay: IEDB peptide-MHC binding, purified MHC/direct/fluorescence; filed as Kd, often an IC50 or EC50 that approximates it; ≥ and ≤ were set here for values at or beyond the usual limits of such assays
HLA-A*01:01 = assay: as above
HLA-A*02:01 [7] = assay: as above
HLA-A*26:01 [8] = assay: as above
HLA-B*27:05 = assay: as above
HLA-A*69:01 [9] = assay: as above
HLA-B*40:01 = assay: as above
HLA-B*35:01 [10] = assay: as above
HLA-A*24:03 [11] = assay: as above
HLA-B*58:01 = assay: as above
HLA-A*11:01 = assay: as above
HLA-A*31:01 = assay: as above
HLA-A*03:01 [12] = assay: as above
HLA-A*30:01 = assay: as above
HLA-B*44:02 = assay: as above
HLA-B*15:01 = assay: as above
HLA-B*07:02 = assay: as above
HLA-A*02:03 = assay: IEDB peptide-MHC binding, purified MHC/competitive/fluorescence; filed as Kd, often an IC50 or EC50 that approximates it; ≥ and ≤ were set here for values at or beyond the usual limits of such assays; settings: source organism: Escherichia coli B171
HLA-B*46:01 [13] = assay: IEDB peptide-MHC binding, purified MHC/direct/fluorescence; filed as Kd, often an IC50 or EC50 that approximates it; ≥ and ≤ were set here for values at or beyond the usual limits of such assays; settings: source organism: Escherichia coli O157:H7
HLA-B*18:01 [14] = assay: as above; settings: source organism: Escherichia coli O157:H7
HLA-A*24:02 = assay: as above; settings: source organism: Escherichia coli O157:H7
HLA-B*15:02 = assay: as above; settings: source organism: Escherichia coli O157:H7
HLA-B*46:01 [15] = assay: IEDB peptide-MHC binding, purified MHC/competitive/fluorescence; filed as Kd, often an IC50 or EC50 that approximates it; ≥ and ≤ were set here for values at or beyond the usual limits of such assays; settings: source organism: Giardia lamblia ATCC 50803
HLA-B*35:01 [16] = assay: as above; settings: source organism: West Nile virus
[17] = source organism: Rickettsia sibirica 246
[18] = source organism: Giardia lamblia ATCC 50803
[19] = source organism: Escherichia coli B171
[20] = source organism: Escherichia coli O157:H7
[21] = source organism: Salmonella enterica subsp. enterica serovar Typhimurium
[22] = source organism: Pseudomonas aeruginosa UCBPP-PA14
[23] = source organism: Pseudomonas aeruginosa

Sequence: AMYDPQTYY
Kd (HLA-A*02:01 [1]; [17]): ≥ 20 µM
Kd (HLA-A*29:02; [17]): 0.2 nM
Kd (HLA-A*26:01 [2]; [17]): ≥ 20 µM
Kd (HLA-A*02:16; [17]): ≥ 20 µM
Kd (HLA-A*69:01 [3]; [17]): ≥ 20 µM
Kd (HLA-B*57:01; [17]): ≥ 20000 nM
Kd (HLA-B*51:01; [17]): ≥ 20 µM
Kd (HLA-A*02:19; [17]): ≥ 20 µM
Kd (HLA-A*02:12; [17]): ≥ 20 µM
Kd (HLA-A*68:02; [17]): ≥ 20 µM
Kd (HLA-A*24:03 [4]): ≥ 20 µM
Kd (HLA-B*27:03; [17]): ≥ 20 µM
Kd (HLA-A*03:01 [5]; [17]): 14.2 nM
Kd (HLA-B*39:01; [17]): ≥ 20 µM
Kd (HLA-B*18:01 [6]; [17]): ≥ 20 µM

Sequence: IPRQWHPFA
Kd (HLA-B*08:01; [18]): 3.8 µM
Kd (HLA-A*01:01; [18]): ≥ 20 µM
Kd (HLA-A*02:01 [7]; [18]): ≥ 20 µM
Kd (HLA-A*26:01 [8]; [18]): ≥ 20 µM
Kd (HLA-B*27:05; [18]): ≥ 20 µM
Kd (HLA-A*69:01 [9]; [18]): ≥ 20 µM
Kd (HLA-B*40:01; [18]): ≥ 20 µM
Kd (HLA-B*35:01 [10]; [18]): 1100 nM
Kd (HLA-A*24:03 [11]; [18]): 10.6 µM
Kd (HLA-B*58:01; [18]): ≥ 20 µM
Kd (HLA-A*11:01; [18]): ≥ 20000 nM
Kd (HLA-A*31:01; [18]): ≥ 20 µM
Kd (HLA-A*03:01 [12]; [18]): ≥ 20 µM
Kd (HLA-A*30:01; [18]): 4.66 µM
Kd (HLA-B*44:02; [18]): ≥ 20 µM
Kd (HLA-B*15:01; [18]): ≥ 20 µM
Kd (HLA-B*07:02; [18]): 0.154 µM

Kd (HLA-A*02:01 [1]; [19]): ≥ 20 µM
Kd (HLA-A*29:02; [19]): ≥ 20000 nM
Kd (HLA-A*26:01 [2]; [19]): ≥ 20 µM
Kd (HLA-A*02:16; [19]): ≥ 20 µM
Kd (HLA-A*69:01 [3]; [19]): ≥ 20 µM
Kd (HLA-B*57:01; [19]): 209 nM
Kd (HLA-A*02:03): ≥ 20 µM
Kd (HLA-B*51:01; [19]): ≥ 20 µM
Kd (HLA-A*02:19; [19]): ≥ 20 µM
Kd (HLA-A*02:12; [19]): ≥ 20 µM
Kd (HLA-A*68:02; [19]): ≥ 20 µM
Kd (HLA-B*27:03; [19]): ≥ 20 µM
Kd (HLA-A*03:01 [5]; [19]): ≥ 20000 nM
Kd (HLA-B*39:01; [19]): ≥ 20 µM
Kd (HLA-B*18:01 [6]; [19]): ≥ 20 µM
Sequence: KAIIDTAQF

Kd (HLA-A*01:01; [20]): ≥ 20 µM
Kd (HLA-A*02:01 [7]; [20]): ≥ 20 µM
Kd (HLA-B*27:05; [20]): ≥ 20 µM
Kd (HLA-A*69:01 [9]; [20]): ≥ 20 µM
Kd (HLA-B*40:01; [20]): ≥ 20 µM
Kd (HLA-B*46:01 [13]): ≥ 20 µM
Kd (HLA-B*58:01; [20]): ≥ 20 µM
Kd (HLA-A*11:01; [20]): ≥ 20000 nM
Kd (HLA-A*31:01; [20]): ≥ 20 µM
Kd (HLA-A*03:01 [12]; [20]): ≥ 20 µM
Kd (HLA-B*18:01 [14]): ≥ 20 µM
Kd (HLA-A*24:02): ≥ 20 µM
Kd (HLA-B*44:02; [20]): ≥ 20 µM
Kd (HLA-B*15:01; [20]): ≥ 20 µM
Kd (HLA-B*07:02; [20]): ≥ 20 µM
Sequence: LDKGKLWHL

Kd (HLA-B*08:01; [20]): ≥ 20 µM
Kd (HLA-A*01:01; [20]): ≥ 20 µM
Kd (HLA-A*02:01 [7]; [20]): ≥ 20 µM
Kd (HLA-A*26:01 [8]; [20]): ≥ 20 µM
Kd (HLA-B*27:05; [20]): 0.0907 µM
Kd (HLA-A*69:01 [9]; [20]): ≥ 20 µM
Kd (HLA-B*40:01; [20]): ≥ 20 µM
Kd (HLA-B*35:01 [10]; [20]): 10.2 nM
Kd (HLA-B*46:01 [13]): ≥ 20 µM
Kd (HLA-B*15:02): 1000 nM
Kd (HLA-B*58:01; [20]): ≥ 20 µM
Kd (HLA-A*11:01; [20]): 1980 nM
Kd (HLA-A*03:01 [12]; [20]): ≥ 20 µM
Kd (HLA-B*44:02; [20]): ≥ 20 µM
Kd (HLA-B*15:01; [20]): 0.0796 µM
Kd (HLA-B*07:02; [20]): ≥ 20 µM
Sequence: LQLTAVFAY

Sequence: MLMFITSSH
Kd (HLA-A*11:01; [18]): 144 nM
Kd (HLA-A*03:01 [12]; [18]): 0.167 µM
Kd (HLA-A*30:01; [18]): ≥ 20 µM
Kd (HLA-B*46:01 [15]): 273 nM

Sequence: RVNKGTGVK
Kd (HLA-B*08:01; [20]): ≥ 20 µM
Kd (HLA-A*01:01; [20]): ≥ 20 µM
Kd (HLA-A*02:01 [7]; [21]): 1.34 µM
Kd (HLA-A*26:01 [8]; [20]): ≥ 20 µM
Kd (HLA-B*27:05; [20]): ≥ 20 µM
Kd (HLA-A*69:01 [9]; [20]): ≥ 20 µM
Kd (HLA-B*40:01; [20]): ≥ 20 µM
Kd (HLA-A*24:03 [11]; [21]): 0.437 µM
Kd (HLA-B*58:01; [20]): ≥ 20 µM
Kd (HLA-A*11:01; [21]): 60.6 nM
Kd (HLA-A*31:01; [21]): 0.103 µM
Kd (HLA-A*03:01 [12]; [21]): 0.359 µM
Kd (HLA-A*30:01; [21]): 0.00181 µM
Kd (HLA-B*44:02; [20]): ≥ 20 µM
Kd (HLA-B*15:01; [21]): 4.45 µM
Kd (HLA-B*07:02; [21]): 12.6 µM

Kd (HLA-B*08:01; [22]): ≥ 20 µM
Kd (HLA-A*01:01; [22]): ≥ 20 µM
Kd (HLA-A*02:01 [7]; [22]): ≥ 20 µM
Kd (HLA-A*26:01 [8]; [22]): ≥ 20 µM
Kd (HLA-B*27:05; [22]): ≥ 20 µM
Kd (HLA-A*69:01 [9]; [22]): ≥ 20 µM
Kd (HLA-B*40:01; [22]): ≥ 20 µM
Kd (HLA-B*35:01 [10]; [23]): 124 nM
Kd (HLA-A*24:03 [11]; [22]): ≥ 20 µM
Kd (HLA-B*58:01; [22]): ≥ 20 µM
Kd (HLA-A*11:01; [22]): ≥ 20000 nM
Kd (HLA-A*31:01; [22]): ≥ 20 µM
Kd (HLA-A*03:01 [12]; [22]): ≥ 20 µM
Kd (HLA-A*30:01; [23]): 8.23 µM
Kd (HLA-B*15:01; [23]): ≥ 5 µM
Kd (HLA-B*07:02; [23]): 0.042 µM
Sequence: SPADERAVA

Sequence: TNPAITSRV
Kd (HLA-A*68:02; source organism: Vibrio cholerae 2740-80): 0.0217 µM

Sequence: WMILRAISF
Kd (HLA-A*30:01; source organism: West Nile virus SPU116/89): ≥ 20 µM
Kd (HLA-B*35:01 [16]): 1280 nM
